# In the supplement of paper PMC7125110:
# ± gives the standard error. Fewer inactive variants are shown than the library holds.
# B1: glmS ribozyme (parent)
# chain: AUAAAAGCGCCAGAACUACAGAAAUGUAGUUGACGAGGAGGAGGUUUAUCGAAUUUUCGGCGGAUGCCUCCAAA
# Variants of: B1
# Assay: self-cleavage kobs at 640 uM GlcN6P; higher = faster cleavage; RNA array
# Conditions: with glucosamine-6-phosphate
# In short: (§1)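 Barcoded glmS ribozyme variants on sequenced MiSeq chips were transcribed in situ by E. coli RNA polymerase and tracked through a hybridised Cy3 probe at 37 °C. Glucosamine-6-phosphate (40 μM to 10 mM) in HEPES/KCl/Mg(OAc)2 buffer was flowed in, and tiles were imaged over ~14 h. Signals were normalised to baseline and to non-cleaving reference variants; per-tile medians were fit to one- or two-exponential decays to give kobs. kcat and KM came from weighted Michaelis–Menten fits across concentrations.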
row,Variant,self-cleavage kobs at 640 uM GlcN6P [s⁻¹]
1,U45C A52G C70U,4.7e-05 ± 1.6e-05
2,A42C U49C C58U,< 1e-05
3,C11U A53U C70G,0.000189 ± 5.3e-05
4,G32U G38C C68U,< 1e-05
5,G32U A33G G38A,< 1e-05
6,G38U G43U U57C C70U,< 1e-05
7,A42G U45C G59C G62U C68U,< 1e-05
8,A15U U45C G66U C67G,7.69e-05 ± 2.9e-05
9,C11U G29U U54A,0.000113 ± 2.1e-05
10,G44C C58G C61G,< 1e-05
11,C10U A12C G60U,< 1e-05
12,G32A U65A C71U,5.38e-05 ± 1.4e-05
13,C11U U30C G43A,< 1e-05
14,C50A A52C C61A C68U,0.000706 ± 0.00019
15,G7C A48G U54G,< 1e-05
16,C8G G13C G38U C50G,4.5e-05 ± 2.2e-05
17,C50G U65G U69A,0.000101 ± 2.1e-05
18,G29U A42G U45C,6.45e-05 ± 2.4e-05
19,A6U A15G G62U U69G,0.000197 ± 5.9e-05
20,G32U U55A C71A,9.04e-05 ± 2.8e-05
21,C16G G63U,< 1e-05
22,A53G G60A C61G,< 1e-05

row,Variant,self-cleavage kobs at 640 uM GlcN6P [s⁻¹]
1,C8U G29A G37A A39U C61U A64C,< 1e-05
2,A39U A42C U49G,< 1e-05
3,A12G U45C C50U,< 1e-05
4,C58G C68A U69G,0.000107 ± 3.5e-05
5,G7A G37A G60U A64U,< 1e-05
6,U31C G41A A48U C67G,< 1e-05
7,U31A A33U G44U U69C,< 1e-05
8,C34U U69G C71U,0.000948 ± 0.00043
9,A6U A15G C19A A33C C68G,< 1e-05
10,A14U A15G A64C,< 1e-05
11,A15G U31A U47G,0.000471 ± 0.00011
12,A4C G32U U47G,8.66e-05 ± 2.2e-05
13,G40U G41C C70A,6.65e-05 ± 1.8e-05
14,A12G A48U G63U,< 1e-05
15,C34G U57A,< 1e-05
16,U31C C50G G59A C71G,7.63e-05 ± 1.9e-05
17,C8U C11U U55A G62A,< 1e-05
18,G35A G38U A42C U55C,< 1e-05
19,U54G G66C,0.000405 ± 6.3e-05
20,C10A A36U G62A,< 1e-05
21,A6G A14G A33U,< 1e-05

# Variants of: B1
# Assay: self-cleavage kobs at 2500 uM GlcN6P; higher = faster cleavage; RNA array
# Conditions: with glucosamine-6-phosphate
# In short: as §1
row,Variant,self-cleavage kobs at 2500 uM GlcN6P [s⁻¹]
1,U45C A52G C70U,6.92e-05 ± 1.3e-05
2,A42C U49C C58U,< 1e-05
3,A15U U45C G66U C67G,0.000193 ± 5.8e-05
4,C11U G29U U54A,0.000171 ± 4.4e-05
5,G32A U65A C71U,9.54e-05 ± 2.4e-05
6,G29U A42G U45C,0.000107 ± 3.3e-05
7,G32U U55A C71A,8.28e-05 ± 3.5e-05
8,C16G G63U,< 1e-05
9,A12G U45C C50U,< 1e-05
10,C58G C68A U69G,5.37e-05 ± 2.4e-05
11,U31C G41A A48U C67G,< 1e-05
12,C34U U69G C71U,6.74e-05 ± 3.3e-05
13,A6U A15G C19A A33C C68G,< 1e-05
14,A15G U31A U47G,0.00142 ± 0.0005
15,A4C G32U U47G,0.000118 ± 3.5e-05
16,G40U G41C C70A,0.000546 ± 0.00013
17,C8U C11U U55A G62A,< 1e-05
18,A6G A42G C67U C70U,< 1e-05
19,C11U G13C U46G A64U,< 1e-05
20,G32C A33C U49G,< 1e-05
21,A39G G44U A53C,0.000157 ± 4.5e-05
22,C16G G40U U55A G60U,0.000989 ± 0.00047
23,A15U A33C A39G C71G,< 1e-05

row,Variant,self-cleavage kobs at 2500 uM GlcN6P [s⁻¹]
1,A24C G29U A64G,0.000837 ± 0.00014
2,G41C G43U G59A,< 1e-05
3,G37A G38C U56G C70G,6.06e-05 ± 1.5e-05
4,C16A A39G U69G,0.000118 ± 3.8e-05
5,G29U U45C U46G,6.29e-05 ± 2.8e-05
6,G7U G43A U47G U56G,< 1e-05
7,C16A G37C U55C,< 1e-05
8,A53G C61U C68G,6.94e-05 ± 2.7e-05
9,G44A U49A G62U,< 1e-05
10,A36U C58G C70U,6.88e-05 ± 2.4e-05
11,C11A A33G G35U A52G,< 1e-05
12,C8U C10U G13U G29C C58U C61A C67A,0.000532 ± 0.00015
13,G32A G40A U69G,< 1e-05
14,A39G G43C A52C,< 1e-05
15,G7U U31C G32C G35C A36C C71U,< 1e-05
16,A14U C34A A48G C68G C71A,< 1e-05
17,C8G G29U A36C A48G C70U,< 1e-05
18,G9C A15C G44A G60U C61G,< 1e-05
19,A15G U55G C71U,0.00368 ± 0.0014
20,G13C U30C C71G,4.16e-05 ± 2.1e-05
21,A14U G51C A64G,< 1e-05
22,C10A C50U C68U,6.13e-05 ± 2.7e-05
23,C16G G43A A48U,< 1e-05

row,Variant,self-cleavage kobs at 2500 uM GlcN6P [s⁻¹]
1,A6G C11G A33U G59C,< 1e-05
2,C10G U47C A53U U54A C70U,< 1e-05
3,A14C U30C G32A C58G,7.82e-05 ± 3.2e-05
4,C11A G21U,9.85e-05 ± 2.9e-05
5,A52G U55A,0.000757 ± 0.00015
6,C8A C16U A33U C68U,< 1e-05
7,C16U G29U C70G C71A,7.2e-05 ± 1.7e-05
8,A14C U45A A64U,4.3e-05 ± 1.9e-05
9,C58A U65G C70U,6.2e-05 ± 2.7e-05
10,C11G G40A A53U,< 1e-05
11,A6C A12G G37A,< 1e-05
12,A12G G38U C67G C68A,9.28e-05 ± 2.6e-05
13,A15G G29U U47G U54A,0.000248 ± 6.2e-05
14,A14C A15U C61U C67A,< 1e-05
15,A42G C50G G63U,< 1e-05
16,A36U A42U G59U,< 1e-05
17,G13A U49C C50U,< 1e-05
18,A33G A52G G63A,< 1e-05
19,A6C U31A A48C,< 1e-05
20,C10U G35C G38A A52C G62U,< 1e-05
21,U47C U57C C71G,< 1e-05
22,G37A A39G C71G,0.000523 ± 0.00013
23,A6G G40U A52G A53U,< 1e-05

row,Variant,self-cleavage kobs at 2500 uM GlcN6P [s⁻¹]
1,C11U C34G U54C,< 1e-05
2,A15U G32U A36G A64G C68U,< 1e-05
3,G40U A48C C50U,< 1e-05
4,A12C U31C U56C,0.000204 ± 6.7e-05
5,A6G G35U G51U C58U,< 1e-05
6,A39U A42C U45G,0.000613 ± 0.00019
7,U30G C58G G60U,< 1e-05
8,C11U U31A G32A G38A C70G,7.58e-05 ± 2.6e-05
9,C16U U30C G35C U45A U55G G59U,< 1e-05
10,A36C G37A G38A U56A C68G,6.64e-05 ± 2.3e-05
11,A6U U31G G41U,< 1e-05
12,G7U A33U U69G,0.000542 ± 0.00021
13,G41C A42G U55A,9.68e-05 ± 2.6e-05
14,G37C C50U U69G,6.01e-05 ± 2.6e-05
15,A6C U55G C71U,6.13e-05 ± 2e-05
16,C8A G32U G59A,< 1e-05
17,G7A C8G G9C A15C U47G C71A,< 1e-05
18,C8A A15G G32U G44U C67A,< 1e-05
19,G9C A42U G44U,< 1e-05
20,C16A G32A G37U,< 1e-05
21,U45G C50U U56G G59C,< 1e-05
22,C50U A64U C71U,< 1e-05
23,A36C A48G C70G,< 1e-05

row,Variant,self-cleavage kobs at 2500 uM GlcN6P [s⁻¹]
1,A12C A33G C34U C50A A64U C70G,0.00011 ± 4.2e-05
2,C11G U30C G37U,< 1e-05
3,A6G G37A G66U C70U,< 1e-05
4,G9A G29C G35A G44U U46A A64C,< 1e-05
5,C10A C11A G51U A52U,< 1e-05
6,C10A G29C U55A C70G,9.79e-05 ± 2.6e-05
7,G37U U46G A52U U57A,< 1e-05
8,A6G G59U C61U,< 1e-05
9,U30C G35C U49A,< 1e-05
10,A14C A33G C34G G37C G60C,< 1e-05
11,C16U A39G A48C,0.000168 ± 5e-05
12,U55A G59A A64G,2.94e-05 ± 1.4e-05
13,G38U C50G G63C,7.85e-05 ± 2.7e-05
14,A12U U30A G37A G59U,< 1e-05
15,G29U U55C G60C C68G,< 1e-05
16,C11G A14G G43U G60C,< 1e-05
17,C58U U65A C68G,0.000102 ± 3.1e-05
18,A33U G37C C70G,< 1e-05
19,A39U G60A U65G,< 1e-05
20,G41U A53U G60U C61A G66U,< 1e-05
21,G29U U47G U54G,0.000533 ± 0.00012
22,G35C U49G G62U C71G,< 1e-05
23,A15C U49G C58G,< 1e-05

row,Variant,self-cleavage kobs at 2500 uM GlcN6P [s⁻¹]
1,C8A G40C C67A,< 1e-05
2,C11U A52C C68U C71G,0.0003 ± 0.00014
3,A36C G43C C50G C68A,< 1e-05
4,U47G C68A C71G,0.00013 ± 3.6e-05
5,C11U A36G G40U G44A C61A C71U,< 1e-05
6,G43U U49G C61G,< 1e-05
7,U30A A42C U45G U65G C70G,0.000761 ± 0.00026
8,G13U C34U A39G G62A,< 1e-05
9,A15G G38U A52U,< 1e-05
10,G29U G44U G59U C67A,< 1e-05
11,G37A G44C,4.54e-05 ± 1.3e-05
12,A36C G59U G60U C70G,< 1e-05
13,A12U A15U C50A G51A G59C,< 1e-05
14,A39U A42U U47A,0.0025 ± 0.0012
15,G13A A33C C70U,< 1e-05
16,C10A C11G G40U C50G A52U,< 1e-05
17,G35U A36U G43A C50G U69G,< 1e-05
18,C8A U31C A42U U65G,< 1e-05
19,C10U G35C G51U U56G G62U,< 1e-05
20,C11U A15U G41C,< 1e-05
21,G29U C50U C61U,< 1e-05

# Variants of: B1
# Assay: self-cleavage kobs at 10000 uM GlcN6P; higher = faster cleavage; RNA array
# Conditions: with glucosamine-6-phosphate
# In short: as §1
row,Variant,self-cleavage kobs at 10000 uM GlcN6P [s⁻¹]
1,C11U G29U U54A,0.000577 ± 0.00014
2,C16G G63U,< 1e-05
3,C34G U57A,< 1e-05
4,U54G G66C,0.00079 ± 0.00012
5,C11U G13C U46G A64U,< 1e-05
6,A53G C61U C68G,4.37e-05 ± 1.2e-05
7,C11A A33G G35U A52G,< 1e-05
8,G32A G40A U69G,< 1e-05
9,A14U C34A A48G C68G C71A,0.000226 ± 7.7e-05
10,C11A G21U,0.000164 ± 3.4e-05
11,A52G U55A,0.00185 ± 0.00032
12,A6C U31A A48C,< 1e-05
13,C8A A15G G32U G44U C67A,< 1e-05
14,C16U A39G A48C,0.000325 ± 9.5e-05
15,A39U G60A U65G,< 1e-05
16,A39U A42U U47A,0.00362 ± 0.0011
17,C8A U31C A42U U65G,< 1e-05
